This is an account of results in article PMC12945441 (Science (New York, N.Y.), 2022).

This experiment has as its target prefusion SARS-CoV-2 Omicron BA.1 S ectodomain trimer (SARS-CoV-2 Omicron BA.1 (B.1.1.529), strain). Description: cryo-EM structure. The settings on record: both partners purified.

B1: S2X324 Fab fragment (Fab, V domains shown)
VH: QITLKESGPTLVKPTQTLTLTCTFSGFSVTTSGVGVGWIRQPPGKALEYLALIYWDDDKRYSTSLKSRLTITKDTSKNQVVLTMTNMDPVDTATYYCARHTIPSIFDYWGQGILVTVSS
VL: QPVLTQPASVSGSPGQSITISCTATSSDVGNYNYVSWYQHHPGKAPKLMIYEVSNRPSGVSNRFSGSKSGNTASLTISGLQAEDEADYYCSSYTSSSLLFGGGTKLTVL
On to B1, for which the stoichiometry N (as a rule, a count of units in the complex or per binding partner) was determined as 3 Fabs per S trimer.
